Results taken from US20260201327A1.

Target: CD40 in the antibody expressing cells (rabbit plasmablasts from peripheral blood) (rabbit)
Test: cell-based or functional assay

B cell growth after 7 days, batch sort in BM1, Fc-CD40-L against LZ-CD40-L (18 kDa) (% higher than LZ-CD40-L (18 kDa))	B cell growth after 7 days, batch sort in BM1, cytokines + CD40-L construct 7.5 ug/ml, against the reference EL4-B5 + TSN (% more than reference)	cell growth after 7 days, batch sort in BM1, cytokines + Fc-CD40-L 7.5 ug/ml (#4) against the reference TSN + EL4-B5 (% higher than reference)	cell growth after 7 days, batch sort in BM2, 2.5 ug/ml Fc-CD40-L (#12) against 7.5 ug/ml (#10)	cell growth after 7 days, batch sort in BM2, 5.0 ug/ml Fc-CD40-L (#11) against 7.5 ug/ml (#10)	cell growth after 7 days, batch sort in BM2, cytokines + 2.5 ug/ml Fc-CD40-L (#12) against the reference #9 (% lower than reference)	cell growth after 7 days, batch sort in BM2, cytokines + 5.0 ug/ml Fc-CD40-L (#11) against the reference #9 (% lower than reference)	cell growth after 7 days, batch sort in BM2, cytokines + 7.5 ug/ml Fc-CD40-L (#10) against the reference TSN + EL4-B5 (#9) (% higher than reference)	B cell growth after 7 days, batch sort in BM1, cytokines + CD40-L construct 7.5 ug/ml, against the reference EL4-B5 + TSN (% of reference)	DoE parameter estimate for plasmablast proliferation (cell number after 7 days, 50 cells per well, feeder cell and TSN replacement)	Substance
32	43	23	1.4 times lower	1.1 times lower	27	5	6			Fc-CD40-L (human IgG1-Fc fragment linked to the 18 kDa rabbit CD40-L fragment) (Fc fusion)
								68	139	LZ-CD40-L EctoD (ligand)
